The chains are these.
B1: KOW domain-containing transcription factor 1 (KTF1), residues 1-712, the conserved N-terminal domain (domain or fragment, Arabidopsis thaliana, UniProt F4JW79 1-712, looked up)
chain: MDRKGKGKQVAGSDSYSGGQKRKNSVEFRDEGLRIKKRKNPEVLQFFEESAEVGYYGGSSDEDDDGLGFLNDMEDEPEVEESSKAGKGEKGKSSFVFPKEEDLNEEEFDRIMEERYKPGSGFLRYADDDIKDAIEMDALAPTSKDPPIWKVKCAIGRERRSVFCLMHKFVELRKIGTKLEIISVFSVDHVKGFIFIEADKEHDVLEACKSLVGIYATRMVLLPKAETPNLLTVQKKTKKVSEGTWARVKNGKYKGDLAQIVAVSDTRNKALIKLIPRIDIQALTQKYGGGVTVQKGQTPAPRLISSSELEEFRPLIQVRRDRDTGITFEHLDSLMLKDGYLYKKVSLDSISSWGVIPTKDELLKFTPVDRKETGDVEWISEIYGEERKKKILPTCREGGKGEGSGGGKGEGSGGGKGEGSRGGKGEGSSDFKSESSYELYNLVCFSRKDFGLIVGVDDKGDGYKVLKEGIDGPVVVTVGKKEMQNGPFDSKFTALDLNKKQISVNDVVKISKGPSEGKQGVVRQVYRGIIFLYDESEEENGGYFCCKSQSCEKVKLFTEESNEKTGGFDGTAFEDFVSSPKSPLSPEKEWQPRERYNSSNQGDIGSTYSIGQKLRIRVGPLKGYLCRVIALRYSDVTVKLDSQHKIFTVKSEHLAEVRDRNTVLSTSGDAGTGSFQPFGMLGTESSTGDWAIGAGTSSEGGNWNIGGPSTDS
notes: KTF1 (SPT5L), Arabidopsis thaliana, At5g04290, residues 1-712 (NGN, KOW1, KOW4, KOW5; without the C-terminal GW/WG repeats); The modified pETDuet1 vector carries a 6xHis-tagged SUMOstar that was cleaved on the column; Added to Pol V as the heterodimer with SPT4; Only the KOW5 domain is seen in the map; also called SPT5L; truncated KTF1 (1-712)

One assay has as its target T1, NRP(D/E)2 (Arabidopsis thaliana (endogenous in T87 …, UniProt Q9LK40 1-1172)).
T1 construct: NRP(D/E)2, second largest subunit shared by Pol IV and Pol V, Arabidopsis thaliana; also called NRP(D/E)2 subunit; source: endogenous, A. thaliana T87 cells, co-purified with 3xFLAG-10xHis-NRPE1
T1 sequence (looked up): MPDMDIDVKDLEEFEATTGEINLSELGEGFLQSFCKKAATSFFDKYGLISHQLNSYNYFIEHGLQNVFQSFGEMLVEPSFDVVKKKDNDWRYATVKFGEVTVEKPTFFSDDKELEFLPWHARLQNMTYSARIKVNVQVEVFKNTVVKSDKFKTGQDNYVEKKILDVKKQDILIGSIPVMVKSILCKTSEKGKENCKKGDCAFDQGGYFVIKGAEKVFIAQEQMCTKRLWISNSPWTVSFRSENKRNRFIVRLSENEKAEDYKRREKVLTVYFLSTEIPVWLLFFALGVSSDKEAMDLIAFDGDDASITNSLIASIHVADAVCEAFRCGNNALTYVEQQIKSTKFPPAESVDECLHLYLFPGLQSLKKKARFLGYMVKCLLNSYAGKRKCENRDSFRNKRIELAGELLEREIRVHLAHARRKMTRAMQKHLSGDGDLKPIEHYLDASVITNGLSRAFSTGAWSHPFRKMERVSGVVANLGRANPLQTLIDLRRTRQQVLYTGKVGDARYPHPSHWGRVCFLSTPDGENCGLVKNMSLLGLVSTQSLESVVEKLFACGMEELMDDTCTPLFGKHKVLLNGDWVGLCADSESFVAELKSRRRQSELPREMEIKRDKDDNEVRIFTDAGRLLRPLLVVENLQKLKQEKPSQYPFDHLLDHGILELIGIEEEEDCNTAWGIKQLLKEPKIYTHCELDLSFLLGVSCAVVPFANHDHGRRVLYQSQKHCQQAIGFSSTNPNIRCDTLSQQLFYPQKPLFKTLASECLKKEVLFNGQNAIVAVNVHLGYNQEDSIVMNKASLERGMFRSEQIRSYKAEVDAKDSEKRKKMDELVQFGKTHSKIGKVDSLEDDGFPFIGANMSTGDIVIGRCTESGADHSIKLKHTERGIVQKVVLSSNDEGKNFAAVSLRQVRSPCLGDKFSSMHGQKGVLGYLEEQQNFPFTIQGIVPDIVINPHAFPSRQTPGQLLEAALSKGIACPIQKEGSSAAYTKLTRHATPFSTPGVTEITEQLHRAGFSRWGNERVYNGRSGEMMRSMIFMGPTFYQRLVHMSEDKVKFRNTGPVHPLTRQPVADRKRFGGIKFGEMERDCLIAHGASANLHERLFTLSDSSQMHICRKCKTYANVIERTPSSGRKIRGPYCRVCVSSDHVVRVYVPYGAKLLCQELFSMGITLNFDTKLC
Put plainly: cryo-EM structure; Pol V, nucleic-acid scaffold and KTF1/SPT4 heterodimer mixed 1:1.2:3 in 20 mM HEPES pH 7.5, 100 mM NaCl, 5 mM MgCl2, 1 mM DTT; complex taken from Superose 6 Increase; maps at 3.2 Å and 4.3 Å, local maps at 3.0 Å and 3.7 Å. To be noted: both partners purified.

Assay [1] concerns the target B1. The assay is described as above. The following applies: both partners purified.

The record followed here is PMC10229537, “A cryo-EM structure of KTF1-bound polymerase V transcription elongation complex” (Nature Communications, 2023).

Regarding B1, the binding result in the assay with NRP(D/E)2 is “binds”.

B2: NRP(A/B/C/D/E)12 (natural protein)
chain: not shown
notes: NRP(A/B/C/D/E)12, subunit 12 shared by Pol I-V, Arabidopsis thaliana; source: endogenous, A. thaliana T87 cells, co-purified with 3xFLAG-10xHis-NRPE1
As to B2, the binding result in assay [1] is recorded as “binds”.

B3: NRP(B/D/E)3 (natural protein, UniProt Q39211 1-319, looked up)
chain: MDGATYQRFPKIKIRELKDDYAKFELRETDVSMANALRRVMISEVPTVAIDLVEIEVNSSVLNDEFIAHRLGLIPLTSERAMSMRFSRDCDACDGDGQCEFCSVEFRLSSKCVTDQTLDVTSRDLYSADPTVTPVDFTIDSSVSDSSEHKGIIIVKLRRGQELKLRAIARKGIGKDHAKWSPAATVTFMYEPDIIINEDMMDTLSDEEKIDLIESSPTKVFGMDPVTRQVVVVDPEAYTYDEEVIKKAEAMGKPGLIEISPKDDSFIFTVESTGAVKASQLVLNAIDLLKQKLDAVRLSDDTVEADDQFGELGAHMRGG
notes: NRP(B/D/E)3, subunit 3 shared by Pol II, IV and V, Arabidopsis thaliana; also called NRPE(B/D/E)3; source: endogenous, A. thaliana T87 cells, co-purified with 3xFLAG-10xHis-NRPE1
For the molecule B3, the binding result in assay [1] is “binds”.
